From PMC1950529
Where two headings read alike, the source gives them in different places.

Tests used:
[1] = target: Thermus aquaticus DnaB helicase (Thermus aquaticus); assay: SEC
[2] = target: Thermus aquaticus DnaB helicase (Thermus aquaticus); assay: SEC; remark: listed apart in the source

stoichiometry N [1]: 6 | stoichiometry N [2]: 6
Substance: Thermus aquaticus DnaB helicase (enzyme)
